From publication PMC4557121 (2015)

How the values were obtained:
Assay in all cases: SPR
[1] = target: A2 with residue 4 substituted with alanine (UniProt Q13501)
[2] = target: M5
[3] = target: A2 with residue 7 substituted with alanine (UniProt Q13501)
[4] = target: A2 (UniProt Q13501)
[5] = target: M11
[6] = target: M2
[7] = target: A2 with residue 9 substituted with alanine (UniProt Q13501)
[8] = target: A2 with residue 3 substituted with alanine (UniProt Q13501)
[9] = target: M10
[10] = target: M1
[11] = target: M6

B1: purified TRB3 protein (natural protein)
chain: MRATPLAAPAGSLSRKKRLELDDNLDTERPVQKRARSGPQPRLPPCLLPLSPPTAPDRATAVATASRLGPYVLLEPEEGGRAYQALHCPTGTEYTCKVYPVQEALAVLEPYARLPPHKHVARPTEVLAGTQLLYAFFTRTHGDMHSLVRSRHRIPEPEAAVLFRQMATALAHCHQHGLVLRDLKLCRFVFADRERKKLVLENLEDSCVLTGPDDSLWDKHACPAYVGPEILSSRASYSGKAADVWSLGVALFTMLAGHYPFQDSEPVLLFGKIRRGAYALPAGLSAPARCLVRCLLRREPAERLTATGILLHPWLRQDPMPLAPTRSHLWEAAQVVPDGLGLDEAREEEGDREVVLYG
[1]
  Kd: 4320 nM
[2]
  Kd: 110 nM
[3]
  Kd: 11800 nM
[4]
  Kd: 10.2 nM
[5]
  Kd: 73.1 nM
[6]
  Kd: 402 nM
[7]
  Kd: 35600 nM
[8]
  Kd: 3590 nM
[9]
  Kd: 381 nM
[10]
  Kd: 1640 nM
[11]
  Kd: 0.142 nM
